What is called Kd is the concentration at which binding is half-saturated. A low value points to tighter binding.

The results in this text go back to patent US20230277625A1 (SIMCHA IL 18, published 2023).

The labels stand for the following.
B3: Human IL-18BP (amino acids 31-194), biotinylated (receptor)
chain: TPVSQTTTAATASVRSTKDPCPSQPPVFPAAKQCPALEVTWPEVEVPLNGTLSLSCVACSRFPNFSILYWLGNGSFIEHLPGRLWEGSTSRERGSTGTQLCKALVLEQLTPALHSTNFSCVLVDPEQVVQRHVVLAQLWAGLRATLPPTQEALPSSHSSPQQQGGLNDIFEAQKIEWHEHHHHHH
modifications: biotin on the AviTag (BirA ligase) where used biotinylated
notes: Soluble decoy receptor; also called hIL-18BP; recombinant IL-18BP

The target of experiment [1] is T1, Mouse IL-18Rα ectodomain (amino acids 19-329), biotinylated (mouse, UniProt Q61098 19-329, biotin on the AviTag (BirA ligase)).
T1 construct: range 19-329; Secreted from Expi293 cells (H7 signal peptide removed); also called mIL-18Rα; mIL18Ra
T1 sequence: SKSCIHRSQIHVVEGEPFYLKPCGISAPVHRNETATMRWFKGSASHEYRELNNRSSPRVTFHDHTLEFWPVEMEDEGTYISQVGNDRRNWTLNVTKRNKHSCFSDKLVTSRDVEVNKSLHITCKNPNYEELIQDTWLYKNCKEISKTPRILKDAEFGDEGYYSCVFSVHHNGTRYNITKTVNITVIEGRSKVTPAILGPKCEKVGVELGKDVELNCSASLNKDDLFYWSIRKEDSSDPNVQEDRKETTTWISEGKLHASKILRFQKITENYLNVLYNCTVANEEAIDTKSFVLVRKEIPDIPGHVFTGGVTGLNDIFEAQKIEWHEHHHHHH
Briefly: SPR. Background: Surface plasmon resonance follows binding to a sensor surface in real time, without labels.

For experiment [2], the target named is T1, Mouse IL-18Rα ectodomain (amino acids …). Briefly: on-yeast binding isotherm (flow cytometry). As to the method:
(§1) Individual colonies of IL-18 yeast were grown overnight at 30° C. in SDCAA liquid media and induced in SGCAA liquid media for 1 day at 20° C. IL-18 display levels on yeast were verified by flow cytometry using an anti-cMyc tag antibody (anti-myc-PE; Cell Signaling Technologies). Receptor staining with biotinylated IL-18Rα (with or without IL-18R β) or biotinylated IL-18BP was performed in PBS supplemented with 0.5% BSA and 2 mM EDTA (PBE) on ice. All analysis was performed on a Sony SA3800 flow cytometer.
(In general: Flow cytometry measures light scatter and fluorescence of single cells or particles in a stream.)

In experiment [3] the target is T2, Mouse IL-18BP (amino acids 31-194), biotinylated (mouse, UniProt Q9Z0M9 29-193, biotin on the AviTag (BirA ligase)).
T2 construct: also called mIL-18BP
T2 sequence: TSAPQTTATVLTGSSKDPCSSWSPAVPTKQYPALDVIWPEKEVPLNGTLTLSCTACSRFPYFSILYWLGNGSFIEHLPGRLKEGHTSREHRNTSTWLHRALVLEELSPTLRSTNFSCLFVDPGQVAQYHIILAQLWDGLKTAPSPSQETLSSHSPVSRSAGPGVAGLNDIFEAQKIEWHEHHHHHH
Description: SPR; KD(IL-18BP)/KD(IL-18Rα) normalized to WT IL-18.

For experiment [4], the target named is T2, Mouse IL-18BP (amino acids 31-194), …. Description: yeast binding isotherms and SPR; members per FIG. 11A legend. As to the method: as §1
(§2) Experiments were conducted using a Biacore T100 and carried out at 25° C. Biotinylated IL-18Rα or IL-18BP were immobilized onto a Biacore biotin capture chip (Series S CAP sensor chip, GE Healthcare) to yield an Rmax of ˜50 RU (IL-18Rα) or ˜10 RU (IL-18BP). Measurements were made with serial dilutions of the IL-18 variants in HEPES buffered Saline-P+buffer (10 mM HEPES pH 7.4, 150 mM NaCl, 0.005% surfactant P20). The surface was regenerated by three 60-sec injections of regeneration buffer (3/4 (v/v) 8M guanidine hydrochloride with 1/4 (v/v) 1M sodium hydroxide). Experiments were performed in multiple channels simultaneously for increased observations. All data were analyzed with the Biacore T100 evaluation software version 2.0 with a 1:1 Langmuir binding model.

Experiment [5] shares this target. Description: SPR; KD ratio relative to WT IL-18; SPR; ratio normalized to WT. As for the experimental part:
as §2

In experiment [6] the target is T1, Mouse IL-18Rα ectodomain (amino acids …). Description: SPR (Biacore T100), receptor captured via biotin, IL-18 as analyte. As to the method: as §2
The target in experiment [7] is T2, Mouse IL-18BP (amino acids 31-194), …. Briefly: SPR; KD for IL-18BP over KD for IL-18Rα; SPR; ratio of two measured KD. As for the experimental part: as §2
For experiment [8] the target is unchanged. Description: SPR (Biacore T100), IL-18BP captured via biotin, IL-18 as analyte; SPR, soluble variant. As to the method: as §2
Experiment [9] shares this target. Description: on-yeast binding isotherms; 10 µM used for NBD; yeast-displayed variant; ratio computed with 10 µM put in for NBD. As to the method: as §1
Experiment [10] has the same target. Description: on-yeast binding isotherms; KD ratio relative to WT IL-18; yeast-displayed variant; ratio normalized to WT, from the 10 µM placeholder. As to the method: as §1
Experiment [11] has the same target. Description: SPR, immobilized biotinylated mIL-18BP, mCS2 as analyte; traces stay at or below about 2 RU during the injection (0 to about 180 s) on a 0-40 RU axis. As for the experimental part:
as §2

The target in experiment [12] is B3. Briefly: on-yeast binding isotherm (flow cytometry).
Experiment [13] concerns the target B3. Briefly: on-yeast binding isotherm (flow cytometry), drawn summary table, column IL18BP (KD); IL18Rα column reads N.D.
In experiment [14] the target is T3, Human Interleukin-18 (mature form), wild type (human, UniProt Q14116 37-193).
T3 sequence: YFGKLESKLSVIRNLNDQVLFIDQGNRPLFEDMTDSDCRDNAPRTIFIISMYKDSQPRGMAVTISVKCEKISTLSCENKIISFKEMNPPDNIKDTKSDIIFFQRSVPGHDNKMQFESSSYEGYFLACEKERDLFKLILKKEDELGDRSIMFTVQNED
Briefly: cell-based or functional assay.

Experiment [15] has as its target T3, Human Interleukin-18 (mature form), …. Briefly: competition on yeast (flow cytometry): hIL-18BP titrated against a fixed 100 nM biotinylated hIL-18Rα on yeast-displayed IL-18. As for the experimental part: By contrast, IL-18BP effectively neutralizes the IL-18 E42A, K89A and E42A/K89A previously described (Kim et al., 2001, Proc. Natl. Acad. Sci., 98(6):3304-3309) (shown in chart on right) [E42 and K89 of Kim et al. are E6 and K53 of SEQ ID NO: 30, respectively]. Biotinylated IL-18Rα was kept at a fixed concentration of 100 nM for all samples.
as §1

B1: SEQ ID NO: 61 (murine DR-IL-18 variant mCS2) (ligand)
chain: HFGRLHCTTAVIRNINDQVLFVDKRQPVFEDMTDIDQSASEPQTRLIIYAYGDSRARGKAVTLSVKDSKMSTLSCKNKIISFEEMDPPENIDDIQSDLIFFQKRVPGHNKMEFESSLYEGHFLACQKEDDAFKLILKKKDENGDKSVMFTLTNLHQS
notes: Engineered variant
As for B1, the Kd in experiment [1] is 0.08 nM; in [2] it was 11.3 nM; in [4] it was above 1000 nM; in [6], 0.079 nM; in experiment [8], 10500 nM; in [11], above 10000 nM. Moreover, the “IL-18 BP:Rα Dissociation Constant Ratio” value in experiment [3] was above 7.5e+07. The “Dissociation Constant Ratio normalized to WT IL-18” value is 7.25e+07 in experiment [5] and above 4690 in [10]. For the same molecule, the “KD ratio IL-18BP/IL-18Rα” value in experiment [7] is 133000; in experiment [9], above 885.

B2: SEQ ID NO: 88 (second generation human DR-IL-18 variant 6-20) (ligand)
chain: YFGKLESKLSVIRNLNDQVLFIDQGNRPLFEDMTDSDCRDNAPRTIFIISKYGDSRPRGMAVTISVKCEKISTLSCENKIISFKEMNPPDNIKDTKSDIIFFQRAVPGHNRKMQFESSSYEGYFLACEKERDLFKLILKKEDELGDRSIMFTVQNED
notes: Engineered variant
With B2, the Kd in experiment [12] and in experiment [13] was 340 nM each time.
B3: the “IC50 of recombinant IL-18BP in the HEK Blue IL-18 signaling assay (hIL-18 fixed at 5 nM)” value in [14] was 3 nM. For the same molecule, in [15], the “IC50 (read off the curve)” value was around 20 nM.
